Measured values from article PMC2907061 (Traffic (Copenhagen, Denmark), 2009).
Where two headings read alike, the source gives them in different places. Blank lines part the entries; values can stand above or below the binder they belong to.

B2: untagged recombinant Nap1 (natural protein, yeast, UniProt P25293 1-417, looked up)
chain: MSDPIRTKPKSSMQIDNAPTPHNTPASVLNPSYLKNGNPVRAQAQEQDDKIGTINEEDILANQPLLLQSIQDRLGSLVGQDSGYVGGLPKNVKEKLLSLKTLQSELFEVEKEFQVEMFELENKFLQKYKPIWEQRSRIISGQEQPKPEQIAKGQEIVESLNETELLVDEEEKAQNDSEEEQVKGIPSFWLTALENLPIVCDTITDRDAEVLEYLQDIGLEYLTDGRPGFKLLFRFDSSANPFFTNDILCKTYFYQKELGYSGDFIYDHAEGCEISWKDNAHNVTVDLEMRKQRNKTTKQVRTIEKITPIESFFNFFDPPKIQNEDQDEELEEDLEERLALDYSIGEQLKDKLIPRAVDWFTGAALEFEFEEDEEEADEDEDEEEDDDHGLEDDDGESAEEQDDFAGRPEQAPECKQS

Tests used:
Assay in all cases: pull-down
[1] = target: B2
[2] = target: T1, untagged recombinant Kap95 (yeast, UniProt Q06142 1-861)
T1 sequence (looked up): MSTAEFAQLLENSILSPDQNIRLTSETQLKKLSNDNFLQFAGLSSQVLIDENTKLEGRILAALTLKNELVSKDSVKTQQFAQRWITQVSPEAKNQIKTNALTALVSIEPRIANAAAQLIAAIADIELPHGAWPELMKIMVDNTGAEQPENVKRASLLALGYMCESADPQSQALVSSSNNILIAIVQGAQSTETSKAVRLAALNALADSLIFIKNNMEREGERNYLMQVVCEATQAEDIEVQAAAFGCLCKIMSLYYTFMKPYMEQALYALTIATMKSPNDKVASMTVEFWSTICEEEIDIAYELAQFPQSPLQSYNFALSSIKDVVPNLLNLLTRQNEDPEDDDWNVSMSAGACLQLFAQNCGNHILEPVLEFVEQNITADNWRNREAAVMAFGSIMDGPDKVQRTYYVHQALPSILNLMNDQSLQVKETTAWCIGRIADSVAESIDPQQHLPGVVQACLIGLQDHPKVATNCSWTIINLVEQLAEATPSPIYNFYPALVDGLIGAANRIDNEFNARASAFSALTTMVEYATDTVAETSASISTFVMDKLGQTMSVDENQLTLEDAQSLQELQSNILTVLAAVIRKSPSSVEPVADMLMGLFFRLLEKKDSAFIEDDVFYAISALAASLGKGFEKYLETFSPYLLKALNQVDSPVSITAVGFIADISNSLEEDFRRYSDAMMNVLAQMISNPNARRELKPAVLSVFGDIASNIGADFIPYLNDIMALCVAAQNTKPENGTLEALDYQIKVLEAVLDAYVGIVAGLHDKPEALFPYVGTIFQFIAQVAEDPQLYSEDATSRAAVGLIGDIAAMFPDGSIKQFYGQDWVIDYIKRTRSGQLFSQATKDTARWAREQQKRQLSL

MBP-Kap114 [3] = target: T2, MBP-Kap114 (yeast, UniProt P53067 1-1004)
T2 sequence (looked up): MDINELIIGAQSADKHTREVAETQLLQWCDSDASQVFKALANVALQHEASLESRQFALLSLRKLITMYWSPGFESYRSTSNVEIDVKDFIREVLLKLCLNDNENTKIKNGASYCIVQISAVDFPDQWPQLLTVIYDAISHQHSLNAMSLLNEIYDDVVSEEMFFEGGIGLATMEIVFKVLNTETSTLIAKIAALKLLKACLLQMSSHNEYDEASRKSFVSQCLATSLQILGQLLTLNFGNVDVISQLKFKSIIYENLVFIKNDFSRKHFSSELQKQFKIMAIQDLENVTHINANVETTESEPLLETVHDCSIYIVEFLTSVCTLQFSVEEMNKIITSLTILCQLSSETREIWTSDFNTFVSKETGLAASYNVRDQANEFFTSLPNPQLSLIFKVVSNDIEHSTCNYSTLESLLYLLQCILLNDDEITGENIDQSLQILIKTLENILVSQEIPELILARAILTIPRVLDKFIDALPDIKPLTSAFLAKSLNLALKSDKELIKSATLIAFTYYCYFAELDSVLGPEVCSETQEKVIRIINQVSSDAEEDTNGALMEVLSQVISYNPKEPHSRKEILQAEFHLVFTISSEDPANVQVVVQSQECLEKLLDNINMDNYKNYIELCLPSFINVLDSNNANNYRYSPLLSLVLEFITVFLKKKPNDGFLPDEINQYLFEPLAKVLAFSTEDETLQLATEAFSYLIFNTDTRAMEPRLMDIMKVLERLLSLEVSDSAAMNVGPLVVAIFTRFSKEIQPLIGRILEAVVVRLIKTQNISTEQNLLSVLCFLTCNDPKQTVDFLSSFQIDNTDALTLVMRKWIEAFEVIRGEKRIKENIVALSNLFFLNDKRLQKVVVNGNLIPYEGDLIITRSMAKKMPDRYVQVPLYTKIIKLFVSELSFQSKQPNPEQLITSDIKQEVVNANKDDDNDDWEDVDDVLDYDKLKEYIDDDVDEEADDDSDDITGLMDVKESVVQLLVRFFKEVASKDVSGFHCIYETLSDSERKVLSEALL

MBP-Kap123 = target: T3, MBP-Kap123 (yeast, UniProt P40069 1-1113)
T3 sequence (looked up): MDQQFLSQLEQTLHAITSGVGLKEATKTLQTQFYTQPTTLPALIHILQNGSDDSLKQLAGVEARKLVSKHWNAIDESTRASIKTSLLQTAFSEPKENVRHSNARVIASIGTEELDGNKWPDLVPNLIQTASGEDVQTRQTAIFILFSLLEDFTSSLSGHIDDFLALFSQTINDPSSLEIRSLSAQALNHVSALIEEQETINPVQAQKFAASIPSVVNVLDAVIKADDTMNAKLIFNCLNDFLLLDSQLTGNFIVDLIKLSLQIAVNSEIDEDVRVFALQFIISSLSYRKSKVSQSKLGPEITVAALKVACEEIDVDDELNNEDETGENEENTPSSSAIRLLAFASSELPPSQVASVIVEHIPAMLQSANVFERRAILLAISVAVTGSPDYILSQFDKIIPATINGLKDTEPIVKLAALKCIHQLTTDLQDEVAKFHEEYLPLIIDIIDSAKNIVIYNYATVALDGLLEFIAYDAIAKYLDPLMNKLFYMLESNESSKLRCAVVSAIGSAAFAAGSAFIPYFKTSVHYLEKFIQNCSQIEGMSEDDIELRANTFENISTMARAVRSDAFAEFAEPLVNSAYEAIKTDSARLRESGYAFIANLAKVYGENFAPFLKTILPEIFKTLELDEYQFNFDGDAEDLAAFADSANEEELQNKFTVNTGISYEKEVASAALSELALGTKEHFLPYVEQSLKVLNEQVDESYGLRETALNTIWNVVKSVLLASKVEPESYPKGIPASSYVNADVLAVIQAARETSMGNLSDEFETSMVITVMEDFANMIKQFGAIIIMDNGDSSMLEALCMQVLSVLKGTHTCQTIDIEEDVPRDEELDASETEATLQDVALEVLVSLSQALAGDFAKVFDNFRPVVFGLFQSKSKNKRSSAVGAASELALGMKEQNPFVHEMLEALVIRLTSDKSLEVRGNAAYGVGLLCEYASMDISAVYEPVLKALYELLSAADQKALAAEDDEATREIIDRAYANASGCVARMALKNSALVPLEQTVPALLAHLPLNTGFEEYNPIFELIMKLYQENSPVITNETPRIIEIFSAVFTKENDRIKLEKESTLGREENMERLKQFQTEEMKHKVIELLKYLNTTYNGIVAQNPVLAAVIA

MBP-Kap114 [4] = target: T2, MBP-Kap114; remark: listed apart in the source
[5] = target: T1, untagged recombinant Kap95; remark: listed apart in the source

binding result [1]: binds | binding result [2]: binds | binding result (MBP-Kap114 [3]): binds | binding result (MBP-Kap123): binds
B1: GST-Htz1_(1–53) (domain or fragment, yeast, UniProt Q12692 1-53, looked up)
chain: MSGKAHGGKGKSGAKDSGSLRSQSSSARAGLQFPVGRIKRYLKRHATGRTRVG

Binder: B2
binding result (MBP-Kap114 [4]): binds

binding result [5]: binds
B3: H6-Srp1 (natural protein, yeast, UniProt Q02821 1-542, looked up)
chain: MDNGTDSSTSKFVPEYRRTNFKNKGRFSADELRRRRDTQQVELRKAKRDEALAKRRNFIPPTDGADSDEEDESSVSADQQFYSQLQQELPQMTQQLNSDDMQEQLSATVKFRQILSREHRPPIDVVIQAGVVPRLVEFMRENQPEMLQLEAAWALTNIASGTSAQTKVVVDADAVPLFIQLLYTGSVEVKEQAIWALGNVAGDSTDYRDYVLQCNAMEPILGLFNSNKPSLIRTATWTLSNLCRGKKPQPDWSVVSQALPTLAKLIYSMDTETLVDACWAISYLSDGPQEAIQAVIDVRIPKRLVELLSHESTLVQTPALRAVGNIVTGNDLQTQVVINAGVLPALRLLLSSPKENIKKEACWTISNITAGNTEQIQAVIDANLIPPLVKLLEVAEYKTKKEACWAISNASSGGLQRPDIIRYLVSQGCIKPLCDLLEIADNRIIEVTLDALENILKMGEADKEARGLNINENADFIEKAGGMEKIFNCQQNENDKIYEKAYKIIETYFGEEEDAVDETMAPQNAGNTFGFGSNVNQQFNFN
